According to IntAct's records for PubMed 29892012:

B1: Pre-B-cell leukemia transcription factor 4 (Homo sapiens), Q9BYU1 (parent)
chain: MAAPPRPAPSPPAPRRLDTSDVLQQIMAITDQSLDEAQARKHALNCHRMKPALFSVLCEIKEKTVVSIRGIQDEDPPDAQLLRLDNMLLAEGVCRPEKRGRGGAVARAGTATPGGCPNDNSIEHSDYRAKLSQIRQIYHSELEKYEQACREFTTHVTNLLQEQSRMRPVSPKEIERMVGAIHGKFSAIQMQLKQSTCEAVMTLRSRLLDARRKRRNFSKQATEVLNEYFYSHLNNPYPSEEAKEELARKGGLTISQVSNWFGNKRIRYKKNMGKFQEEATIYTGKTAVDTTEVGVPGNHASCLSTPSSGSSGPFPLPSAGDAFLTLRTLASLQPPPGGGCLQSQAQGSWQGATPQPATASPAGDPGSINSSTSN
partner: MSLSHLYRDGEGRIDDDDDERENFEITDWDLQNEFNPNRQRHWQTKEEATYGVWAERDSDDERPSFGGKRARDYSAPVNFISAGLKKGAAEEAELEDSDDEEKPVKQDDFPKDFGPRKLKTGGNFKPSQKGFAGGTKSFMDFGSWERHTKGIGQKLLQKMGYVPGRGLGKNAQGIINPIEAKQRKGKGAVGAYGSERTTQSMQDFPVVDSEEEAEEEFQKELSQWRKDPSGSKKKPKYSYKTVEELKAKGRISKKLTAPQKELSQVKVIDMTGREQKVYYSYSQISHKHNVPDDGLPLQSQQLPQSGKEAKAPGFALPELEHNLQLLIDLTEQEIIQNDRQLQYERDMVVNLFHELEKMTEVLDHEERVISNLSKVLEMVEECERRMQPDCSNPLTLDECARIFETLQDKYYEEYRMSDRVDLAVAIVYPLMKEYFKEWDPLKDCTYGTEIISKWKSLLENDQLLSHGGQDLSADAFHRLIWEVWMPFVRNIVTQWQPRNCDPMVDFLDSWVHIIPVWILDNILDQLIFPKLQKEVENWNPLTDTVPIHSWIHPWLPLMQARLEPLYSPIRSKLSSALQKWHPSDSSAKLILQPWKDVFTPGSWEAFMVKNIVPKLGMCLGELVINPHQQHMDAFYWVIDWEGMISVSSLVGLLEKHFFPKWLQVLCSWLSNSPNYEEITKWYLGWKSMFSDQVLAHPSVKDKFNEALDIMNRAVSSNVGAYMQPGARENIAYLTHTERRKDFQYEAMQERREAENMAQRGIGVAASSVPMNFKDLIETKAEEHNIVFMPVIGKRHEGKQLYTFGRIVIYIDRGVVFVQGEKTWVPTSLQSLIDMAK
B2: Cyclic AMP-dependent transcription factor ATF-4 (Homo sapiens), P18848 (parent)
chain: MTEMSFLSSEVLVGDLMSPFDQSGLGAEESLGLLDDYLEVAKHFKPHGFSSDKAKAGSSEWLAVDGLVSPSNNSKEDAFSGTDWMLEKMDLKEFDLDALLGIDDLETMPDDLLTTLDDTCDLFAPLVQETNKQPPQTVNPIGHLPESLTKPDQVAPFTFLQPLPLSPGVLSSTPDHSFSLELGSEVDITEGDRKPDYTAYVAMIPQCIKEEDTPSDNDSGICMSPESYLGSPQHSPSTRGSPNRSLPSPGVLCGSARPKPYDPPGEKMVAAKVKGEKLDKKLKKMEQNKTAATRYRQKKRAEQEALTGECKELEKKNEALKERADSLAKEIQYLKDLIEEVRKARGKKRVP
partner: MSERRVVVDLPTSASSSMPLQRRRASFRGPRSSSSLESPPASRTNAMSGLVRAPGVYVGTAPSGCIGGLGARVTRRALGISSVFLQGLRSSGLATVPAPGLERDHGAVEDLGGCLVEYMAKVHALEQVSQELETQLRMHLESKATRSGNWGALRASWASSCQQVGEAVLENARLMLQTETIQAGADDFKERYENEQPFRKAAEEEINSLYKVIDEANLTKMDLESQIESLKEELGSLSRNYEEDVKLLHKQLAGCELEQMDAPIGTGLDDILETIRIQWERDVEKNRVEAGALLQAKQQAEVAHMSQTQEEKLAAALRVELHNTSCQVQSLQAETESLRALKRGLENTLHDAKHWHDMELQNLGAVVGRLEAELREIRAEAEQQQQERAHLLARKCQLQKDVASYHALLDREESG
B3: FAST kinase domain-containing protein 5, mitochondrial (Homo sapiens), Q7L8L6 (parent)
chain: MAATLKSLKLVRYRAFCSPSAFGAVRSVSYWNVSSTQHGGQDPPEHISLCHSAKKVKNICSTFSSRRILTTSSAHPGLEFSKTSSSKASTLQLGSPRATGVDEEDVEVFDSFENMRVFLQLRPEYRVHSYNASETSQLLSVSEGELILHKVRVNQNNLQAQVIVDYLCKLSSLPAEQHPVLLGSTSFALLCQLSVKKIQLFDTQDLINVLKAFVILGIPHSHSMLDVYETKCCHQVWEMNMDQLLLVADLWRYLGRKVPRFLNIFSSYLNLHWKDLSLSQLVHLIYVIGENRQVSQDLMQKLESLILKYIDLINLEEVGTICLGFFKSSTNLSEFVMRKIGDLACANIQHLSSRSLVNIVKMFRFTHVDHINFMKQIGEIAPQRIPSLGVQGVMHLTLYCSALRFLNEGVMNAVAASLPPRVAHCRSKDVAKILWSFGTLNYKPPNAEEFYSSLISEIHRKMPEFNQYPEHLPTCLLGLAFLEYFPVELIDFALSPGFVRLAQERTKFDLLKELYTLDGTVGIECPDYRGNRLSTHLQQEGSELLWYLAEKDMNSKPEFLETVFLLETMLGGPQYVKHHMILPHTRSSDLEVQLDVNLKPLPFNREATPAENVAKLRLEHVGVSLTDDLMNKLLKGKARGHFQGKTESEPGQQPMELENKAAVPLGGFLCNVADKSGAMEMAGLCPAACMQTPRMKLAVQFTNRNQYCYGSRDLLGLHNMKRRQLARLGYRVVELSYWEWLPLLKRTRLEKLAFLHEKVFTSAL
partner: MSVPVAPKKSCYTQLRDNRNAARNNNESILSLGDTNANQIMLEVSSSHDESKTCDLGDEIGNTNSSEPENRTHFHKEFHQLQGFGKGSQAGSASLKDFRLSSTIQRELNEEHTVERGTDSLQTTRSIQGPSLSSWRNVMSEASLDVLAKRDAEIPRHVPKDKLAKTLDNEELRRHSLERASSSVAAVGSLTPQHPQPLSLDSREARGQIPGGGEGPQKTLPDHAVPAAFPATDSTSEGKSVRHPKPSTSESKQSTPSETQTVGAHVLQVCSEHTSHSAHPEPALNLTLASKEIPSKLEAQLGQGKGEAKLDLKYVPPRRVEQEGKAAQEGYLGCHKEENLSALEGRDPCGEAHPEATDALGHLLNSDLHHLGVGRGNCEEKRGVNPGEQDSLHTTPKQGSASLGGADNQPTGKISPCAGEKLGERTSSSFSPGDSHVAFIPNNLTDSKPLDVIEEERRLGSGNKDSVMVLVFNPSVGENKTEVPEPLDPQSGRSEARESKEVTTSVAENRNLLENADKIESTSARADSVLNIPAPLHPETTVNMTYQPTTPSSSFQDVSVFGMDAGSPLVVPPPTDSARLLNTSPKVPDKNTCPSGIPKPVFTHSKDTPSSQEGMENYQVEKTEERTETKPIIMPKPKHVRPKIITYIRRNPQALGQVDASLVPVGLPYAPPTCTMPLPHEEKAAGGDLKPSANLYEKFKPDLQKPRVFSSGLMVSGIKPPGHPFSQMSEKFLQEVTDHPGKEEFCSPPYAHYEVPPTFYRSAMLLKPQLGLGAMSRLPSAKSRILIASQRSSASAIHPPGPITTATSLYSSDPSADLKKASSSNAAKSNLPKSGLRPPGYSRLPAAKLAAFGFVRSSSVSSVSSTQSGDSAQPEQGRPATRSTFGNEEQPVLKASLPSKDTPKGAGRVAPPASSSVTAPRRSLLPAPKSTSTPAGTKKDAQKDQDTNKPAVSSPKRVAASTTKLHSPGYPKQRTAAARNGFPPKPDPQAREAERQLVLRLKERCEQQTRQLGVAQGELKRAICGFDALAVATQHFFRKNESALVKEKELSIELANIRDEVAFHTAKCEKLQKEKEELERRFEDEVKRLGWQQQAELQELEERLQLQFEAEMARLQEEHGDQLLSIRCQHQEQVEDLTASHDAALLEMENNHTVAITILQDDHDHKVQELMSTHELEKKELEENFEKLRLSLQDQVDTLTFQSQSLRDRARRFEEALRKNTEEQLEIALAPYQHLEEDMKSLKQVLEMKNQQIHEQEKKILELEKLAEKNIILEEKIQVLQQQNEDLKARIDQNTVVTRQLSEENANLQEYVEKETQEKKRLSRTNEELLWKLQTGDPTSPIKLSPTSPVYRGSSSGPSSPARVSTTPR
B4: CLK4-associating serine/arginine rich protein (Homo sapiens), Q8N2M8 (parent)
chain: MWHEARKHERKLRGMMVDYKKRAERRREYYEKIKKDPAQFLQVHGRACKVHLDSAVALAAESPVNMMPWQGDTNNMIDRFDVRAHLDHIPDYTPPLLTTISPEQESDERKCNYERYRGLVQNDFAGISEEQCLYQIYIDELYGGLQRPSEDEKKKLAEKKASIGYTYEDSTVAEVEKAAEKPEEEESAAEEESNSDEDEVIPDIDVEVDVDELNQEQVADLNKQATTYGMADGDFVRMLRKDKEEAEAIKHAKALEEEKAMYSGRRSRRQRREFREKRLRGRKISPPSYARRDSPTYDPYKRSPSESSSESRSRSRSPTPGREEKITFITSFGGSDEEAAAAAAAAAASGVTTGKPPAPPQPGGPAPGRNASARRRSSSSSSSSSASRTSSSRSSSRSSSRSRRGGGYYRSGRHARSRSRSWSRSRSRSRRYSRSRSRGRRHSGGGSRDGHRYSRSPARRGGYGPRRRSRSRSHSGDRYRRGGRGLRHHSSSRSRSSWSLSPSRSRSLTRSRSHSPSPSQSRSRSRSRSQSPSPSPAREKLTRPAASPAVGEKLKKTEPAAGKETGAAKPKLTPQEKLKLRMQKALNRQFKADKKAAQEKMIQQEHERQEREDELRAMARKIRMKERERREKEREEWERQYSRQSRSPSPRYSREYSSSRRRSRSRSRSPHYRH
partner: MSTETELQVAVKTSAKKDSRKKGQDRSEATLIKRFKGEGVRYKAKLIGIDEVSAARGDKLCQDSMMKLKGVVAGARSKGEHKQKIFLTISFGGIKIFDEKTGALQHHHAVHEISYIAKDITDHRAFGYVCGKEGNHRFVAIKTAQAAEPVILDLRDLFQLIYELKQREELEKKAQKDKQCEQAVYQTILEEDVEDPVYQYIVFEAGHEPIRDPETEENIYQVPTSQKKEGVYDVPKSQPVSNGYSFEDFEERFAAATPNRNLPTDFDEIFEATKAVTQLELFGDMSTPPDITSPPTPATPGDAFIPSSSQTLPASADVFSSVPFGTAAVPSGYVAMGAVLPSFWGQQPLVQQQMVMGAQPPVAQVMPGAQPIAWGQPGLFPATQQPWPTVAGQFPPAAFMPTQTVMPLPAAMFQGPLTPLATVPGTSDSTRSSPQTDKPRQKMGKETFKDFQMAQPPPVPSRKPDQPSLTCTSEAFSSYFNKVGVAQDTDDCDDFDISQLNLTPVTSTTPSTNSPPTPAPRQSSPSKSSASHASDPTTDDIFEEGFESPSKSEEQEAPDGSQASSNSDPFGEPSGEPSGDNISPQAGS

Variants of: B1
Settings: with tfp11_human TFIP11, Q9UBB9

Variant | effect of a mutation on the interaction
A247T | with no effect

Variants of: B2
Settings: with bfsp2_human BFSP2, Q13515

Variant | effect of a mutation on the interaction
L180F | with no effect

Variants of: B3
Settings: with mtus2_human MTUS2, Q5JR59

Variant | effect of a mutation on the interaction
E483D | with no effect

Variants of: B4
Settings: with dab1_human DAB1, O75553

Variant | effect of a mutation on the interaction
I163V | with no effect
